Test results reported in publication PMC7020990, “Structural and biochemical analysis of the metallo‐β‐lactamase L1 from emerging pathogen Stenotrophomonas maltophilia revealed the subtle but distinct di‐metal scaffold for catalytic activity” (Protein Science : A Publication of the Protein Society, 2019).

Target: the molecule itself
Assay: crystal structure; L1‐Native in space group P2_(1) with the tetramer in the asymmetric unit; all other L1 structures in P6_(4)22 with one chain in the asymmetric unit and the same tetramer formed by crystallographic twofold symmetries

B1: Metallo‐β‐lactamase L1 from Stenotrophomonas maltophilia K279a (enzyme)
chain: SNASAAEAPLPQLRAYTVDASWLQPMAPLQVADHTWQIGTEDLTALLVQTAEGAVLLDGGMPQMAGHLLDNMKLRGVAPQDLRLILLSHAHADHAGPVAELKRRTGAHVAANAETAVLLARGGSNDLHFGDGITYPPASADRIIMDGEVVTVGGIAFTAHFMPGHTPGSTAWTWTDTRDGKPVRIAYADSLSAPGYQLKGNPRYPRLIEDYKRSFATVRALPCDLLLTPHPGASNWNYAVGSKASAEALTCNAYADAAEKKFDAQLARETAGTR
notes: N-terminal Ser‐Asn‐Ala cloning artifact left after TEV cleavage (numbered residues 17–19); Metallo‐β‐lactamase L1 (subclass B3), S. maltophilia K279a, residues 20-290; 88% identical to the L1 of the other strain in earlier structures; Two Zn ions per chain in the native form; Cloned in pMCSG53; also called L1 MBL; L1‐Native; not shown: His‐tag, N-terminal, cleaved
stoichiometry N: 4
